IntAct's records for PubMed 20972459

B1: WW domain-binding protein 2 (Homo sapiens), Q969T9 (parent)
chain: MALNKNHSEGGGVIVNNTESILMSYDHVELTFNDMKNVPEAFKGTKKGTVYLTPYRVIFLSKGKDAMQSFMMPFYLMKDCEIKQPVFGANYIKGTVKAEAGGGWEGSASYKLTFTAGGAIEFGQRMLQVASQASRGEVPSGAYGYSYMPSGAYVYPPPVANGMYPCPPGYPYPPPPPEFYPGPPMMDGAMGYVQPPPPPYPGPMEPPVSGPDVPSTPAAEAKAAEAAASAYYNPGNPHNVYMPTSQPPPPPYYPPEDKKTQ

Variants of: B1
Conditions: with wwtr1_human WWTR1, Q9GZV5
Sequence of wwtr1_human WWTR1, Q9GZV5 (Q9GZV5 whole entry): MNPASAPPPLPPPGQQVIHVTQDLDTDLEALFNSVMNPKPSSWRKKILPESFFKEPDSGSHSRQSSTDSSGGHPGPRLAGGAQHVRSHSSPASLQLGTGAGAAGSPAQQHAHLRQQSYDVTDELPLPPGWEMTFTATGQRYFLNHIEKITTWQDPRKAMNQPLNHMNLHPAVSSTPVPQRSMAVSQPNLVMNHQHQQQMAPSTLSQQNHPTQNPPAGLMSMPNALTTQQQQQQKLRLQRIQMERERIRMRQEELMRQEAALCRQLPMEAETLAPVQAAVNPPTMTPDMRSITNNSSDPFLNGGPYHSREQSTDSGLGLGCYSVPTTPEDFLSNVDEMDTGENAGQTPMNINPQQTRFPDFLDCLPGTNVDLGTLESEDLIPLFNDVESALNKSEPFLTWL

effect of a mutation on the interaction	Variant
disrupting interaction	Y200A
